What was measured:
[1] = molecular target: recombinant Api m 2 (rApi m 2), venom hyaluronidase (honeybee, UniProt Q08169 34-382); assay: ELISA, immobilized rApi m 2, purified nanobody
Experimental: (A) Binding to immobilized Api m 1 was detected using anti-V5 antibody. […] (B) Binding to immobilized rApi m 2 was detected using mouse anti-penta-His and AP-conjugated rabbit anti-mouse IgG antibody.
The immunoreactivity of expressed nanobodies was assessed by ELISA. Briefly, micro well plates were coated with 10 μg/ml nApi m 1 or rApi m 2 diluted in PBS at 4° C. o.n. After blocking for 1 h with PBS containing 4% skimmed milk powder, purified nanobodies were incubated in the wells for 2-3 h at rt. shaking. After washing, nanobodies were detected with rabbit anti-V5 antibody (antibodies-online) and AP-conjugated goat anti-rabbit IgG antibody (Sigma) or with mouse anti-penta-His and AP-conjugated rabbit anti-mouse IgG antibody (Sigma).

[2] = molecular target: T1, native Api m 1 (nApi m 1), phospholipase A2 from honeybee venom (Apis mellifera, UniProt P00630 34-167); assay: monoclonal phage ELISA (phage-displayed nanobody) on immobilized Api m 1 or AM1-4 IgG/Api m 1 complexes; positive clones
T1 construct: also called PLA2; chain A
Experimental: Enrichment of the nanobody phage library was assessed in ELISA by measuring the immunoreactivity of polyclonal phages (A). Binding of phages to immobilized Api m 1 or AM1-4 IgG/Api m 1 complexes was detected using a biotinylated anti-M13 antibody. Data are mean±s.d. of duplicates. Immunoreactivity of monoclonal phages was analyzed in ELISA as above (B). Data are single measurements.
After two rounds of selection the polyclonal phages were assessed for binding to Api m 1 by ELISA. Briefly, micro well plates were coated with 2 μg/ml Api m 1 or 10 μg/ml AM1-4IgG diluted in PBS at 4° C. o.n. After blocking for 30 min with TBS containing 4% skimmed milk powder, the wells were incubated with 2 μg/ml Api m 1 for 1 h at room temperature. After formation of AM1-4 IgG/Api m 1 complexes, polyclonal phages (1×10¹² phages/ml) were incubated in the wells for 2 h at room temperature. After washing, bound phages were detected with biotinylated anti-M13 antibody (Invitrogen) and AP-conjugated ExtrAvidin. For assessment of monoclonal phages, E. coli ER2738 infected with polyclonal phages were plated and individual colonies were picked and expanded for monoclonal phage propagation. Monoclonal phages were assessed by ELISA as described above.

[3] = molecular target: T1, native Api m 1 (nApi m 1), …
[4] = molecular target: T1, native Api m 1 (nApi m 1), …; assay: BLI, compared with AM1-1 IgG1
[5] = molecular target: T1, native Api m 1 (nApi m 1), …; assay: cell-based or functional assay

T1 sequence (P00630 34-167): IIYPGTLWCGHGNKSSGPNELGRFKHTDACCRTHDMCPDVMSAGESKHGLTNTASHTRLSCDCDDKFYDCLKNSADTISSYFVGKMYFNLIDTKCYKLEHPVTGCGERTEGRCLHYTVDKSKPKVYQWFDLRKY
recombinant Api m 2 (rApi m 2), venom hyaluronidase, sequence (Q08169 34-382): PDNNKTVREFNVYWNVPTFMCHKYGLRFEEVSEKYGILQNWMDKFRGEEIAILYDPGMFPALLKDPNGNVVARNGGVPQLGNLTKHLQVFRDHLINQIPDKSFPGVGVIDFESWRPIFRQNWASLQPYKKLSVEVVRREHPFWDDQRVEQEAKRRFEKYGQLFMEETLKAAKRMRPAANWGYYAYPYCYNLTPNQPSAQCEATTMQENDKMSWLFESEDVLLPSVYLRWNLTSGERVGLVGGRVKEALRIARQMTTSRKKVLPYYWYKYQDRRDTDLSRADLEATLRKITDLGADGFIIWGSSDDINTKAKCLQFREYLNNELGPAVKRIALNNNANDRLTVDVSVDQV

| Binder | Kd [3] | inhibition of basophil activation (CD63 positive), Patient 1 [5] | inhibition of basophil activation (CD63 positive), Patient 2 [5] | also measured |
| --- | --- | --- | --- | --- |
| nanobody AM2-C2 (VHH, not shown: small tags and cut ends) VHH: EVQLQESGGGLVQPGGSLRLSCAASGTTINIGAARWYRQAPGKQREVVAGISFGGATNYIDSVKGRFTISRGDALNTWYLQMNNLKPEDTAVYYCNARGEWGQGTQVAVS |  |  |  | binding result [1]: binds |
| nanobody AM1-22 (VHH, not shown: small tags and cut ends, also called B4) VHH: QVQLVESGGGLVQAGGSLRLSCAASGSIFNWAWYRQFPGKQREWVATITSGGNTNLADSVKGRFTISLDNAKNTMYLQMNSLKPEDTAVYYCNSARFRNRDAIWGQGTQVTVS |  |  |  | binding result [2]: binds |
| AM1-22 IgG1 (nanobody-based human IgG1) (Fc fusion) QVQLVESGGGLVQAGGSLRLSCAASGSIFNWAWYRQFPGKQREWVATITSGGNTNLADSVKGRFTISLDNAKNTMYLQMNSLKPEDTAVYYCNSARFRNRDAIWGQGTQVTVS | < 0.001 nM |  |  | fold higher affinity than AM1-1 IgG1 [4]: ~100 fold |
| nanobody AM2-O2 (VHH, not shown: small tags and cut ends) VHH: EVQLQESGGGLVQAGGSLRLSCAASGDTICISAMGWYRQAPGKERELVAVITSADSTNYADSVKGRFTISRAGAKNTLYLQMNSLKPEDTAVYYCNAHTPKYSDFEVTCYEYDYWGQGTLVSVS |  |  |  | binding result [1]: binds |
| AM1-4 IgG1 (monospecific nanobody-based human IgG1) (Fc fusion) QVQLVESGGGLVQAGGSLRLSCAASGRTFSRYAMGWFRQAPGKEREFVSAISGSGGFTDYADSVKGRFTISRDNAKSTVYLRMSSLKPEDTAVYYCAAEGSRGSSTRLDARGTYDYWGQGTQVTVS | 0.3 nM | 44% | 23% |  |
| nanobody AM1-21 (VHH, not shown: small tags and cut ends, also called A7) VHH: QVQLVESGGGLVQAGGSLRLSCAASGFTLDYYAIGWFRQAPGKEREGVSCITSYDDSTYYTDSVKGRFTISRDNAKNTVYLQMNSLKPEDTAVYYCAAVGTWYLVNWWAPSEYDYWGQGTQVTVS |  |  |  | binding result [2]: binds |
| AM1-21 IgG1 (nanobody-based human IgG1) (Fc fusion) QVQLVESGGGLVQAGGSLRLSCAASGFTLDYYAIGWFRQAPGKEREGVSCITSYDDSTYYTDSVKGRFTISRDNAKNTVYLQMNSLKPEDTAVYYCAAVGTWYLVNWWAPSEYDYWGQGTQVTVS | 0.0153 nM |  |  | fold higher affinity than AM1-1 IgG1 [4]: ~100 fold |
| AM1-1 IgG1 (monospecific nanobody-based human IgG1) (Fc fusion) QVQLVETGGGLVQAGGSLRLSCATSGTIFSRATMAWYRQTPGKQREWVTTITTSGNTNYADSVKGRFTISRDNAESTLYLQMNSLKPEDTAVYYCNAQFLSSRTNYWGKGTQVTVS | 1.94 nM | 16% | 7% |  |
| mix of the two monospecific nanobody-based human IgG1 (AM1-1 IgG1 and AM1-4 IgG1) (other) chain 1: QVQLVETGGGLVQAGGSLRLSCATSGTIFSRATMAWYRQTPGKQREWVTTITTSGNTNYADSVKGRFTISRDNAESTLYLQMNSLKPEDTAVYYCNAQFLSSRTNYWGKGTQVTVS chain 2: QVQLVESGGGLVQAGGSLRLSCAASGRTFSRYAMGWFRQAPGKEREFVSAISGSGGFTDYADSVKGRFTISRDNAKSTVYLRMSSLKPEDTAVYYCAAEGSRGSSTRLDARGTYDYWGQGTQVTVS |  | 69% | 38% |  |
